Source: PMC6882859, “Core architecture of a bacterial type II secretion system” (Nature Communications, 2019)

T1: PulE with C-terminal StrepII tag (Klebsiella pneumoniae HS11286, UniProt A0A0H3GRZ5 1-497)
T1 construct: PulE ATPase of the Klebsiella pneumoniae HS11286 type II secretion system; N1E, N2E and CTE domains; also called PulE ATPase; GspE; source: E. coli C43 (DE3) with pspA knockout, co-expressed (from the pul operon in pASK3c, or full-length pulE alone in pASK3c); DDM-solubilised membranes; purified as part of a complex (StrepTrap, Flag resin); not shown: StrepII, C-terminal, kept
T1 sequence: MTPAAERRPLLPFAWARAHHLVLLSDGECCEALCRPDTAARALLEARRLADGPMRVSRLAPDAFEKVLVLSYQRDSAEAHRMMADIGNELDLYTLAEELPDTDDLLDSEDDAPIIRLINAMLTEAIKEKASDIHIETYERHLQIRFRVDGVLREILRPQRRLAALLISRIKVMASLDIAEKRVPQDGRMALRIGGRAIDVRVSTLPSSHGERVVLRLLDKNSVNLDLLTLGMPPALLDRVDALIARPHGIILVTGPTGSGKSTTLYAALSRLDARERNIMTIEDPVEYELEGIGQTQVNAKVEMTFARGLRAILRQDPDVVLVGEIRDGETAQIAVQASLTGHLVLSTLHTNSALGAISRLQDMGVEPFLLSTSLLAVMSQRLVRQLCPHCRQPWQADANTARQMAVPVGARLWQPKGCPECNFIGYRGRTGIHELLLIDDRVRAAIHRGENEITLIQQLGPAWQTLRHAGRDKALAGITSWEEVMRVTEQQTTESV

T2: PulE N1E domain (aa 1-108) with C-terminal StrepII tag (Klebsiella pneumoniae HS11286, UniProt A0A0H3GRZ5 1-108)
T2 construct: N1E domain of PulE, Klebsiella pneumoniae HS11286, aa 1-108; source: E. coli, co-expressed with Pul_(Lcyto) (pASK3c); not shown: StrepII, C-terminal, kept
T2 sequence: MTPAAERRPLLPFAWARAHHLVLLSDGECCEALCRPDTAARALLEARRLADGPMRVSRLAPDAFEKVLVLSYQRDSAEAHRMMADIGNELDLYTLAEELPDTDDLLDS

B1: PulM (natural protein)
chain: MANLLIWWRQRTPSEQRLLLGLTGLLAACAFWYGLWQPWRAREAQWRQTLVKEQASLRWMTEQAPRLQQLSQQPAPAAKEALTALVMREAASHGLTVIRLQPQGKRLQITLQPCAFQALIDWLDAPAMRGVNAISLSVTGQPSRPGWVTVNHLLLERDDEG
notes: PulM of the Klebsiella pneumoniae HS11286 type II secretion system; whole gene as part of the cloned operon; also called GspM; source: DDM-solubilised membranes; purified as part of a complex
B2: PulL (natural protein)
chain: MNKINASPQAMLIVRLAAAQAPLHWQLFAPGEPHHEASGRWPTDDASPFPALAEQYPAWVLIPASDCAFHSLNLPAGLRKPPLQVAPFLLEEQLADDVEATHFALLHRQQAQCEIVAVQRQKMRDWLARCESLSLQPLALTPDVLALPWQPPAWSAVQVDEQWLIRHQPWGGMAAENVWLTELLQSEAEEHVIDSYSPPPAAPGVWREQPAQTLLTLAARHPAAQKLSLLQGEFAVRRRSAQASWRPARYAALALALLAGANSVLDHRDLARQAEAAQQASRAFYHRWFPTEKKVINPRLQMQQHLQTLTRQAQHAPLVDRLSALQNILSETPGIRLRALSWDAAGNRLQLDIAAVTSRALEQFTQRAQPRFRVRPGDMITKPDGIEGQLTLEENDG
notes: PulL of the Klebsiella pneumoniae HS11286 type II secretion system; bitopic inner membrane protein with a cytoplasmic domain (aa 1-235) and a periplasmic domain; a tag may have been present there; also called GspL; source: DDM-solubilised membranes; purified as part of a complex
B3: PulC (natural protein)
chain: MPVSVMRLTNINKGIIKLLPQIVTLIILITAIPQLAKLTWRVVFPVSPEDISALPLTMPPAADPELKNVRPAFTLFGLAVKNSPTPTDAASLNQVPVSSLKLRLAGLLASSNPARSIAIIEKGNQQVSLSTGDPLPGYDARIAAILPDRIIVNYQGRKEAILLFNDSRAPSPPPTAAGNPPLVKRLREQPQNILTYLSISPVLSGDKLLGYRLNPGKDASLFRQSGLQANDLAIALNGIDLRDQEQAQQALQNLADMTEITLTVEREGQRHDIAFALGDE
notes: whole gene as part of the cloned operon pulC to pulO; has an N-terminus in the inner membrane, an HR domain and a PDZ domain; Only the HR domain (homology model) is fitted in the outer membrane complex map; also called GspC; source: E. coli C43 (DE3) with pspA knockout, co-expressed from the pul operon (pASK3c); DDM-solubilised membranes; purified as part of the complex (StrepTrap, Flag resin)
B4: PulN (natural protein)
chain: MKANWIAGGLLLVLYLLWLTATAPARLLAPMLPPGVQVGQFSGSVWRGAAQPVYWHGERLERLAWSLTLAGWQVSLSDPRGVMGQARLWGLRDLRLQEGRLTAPASLLSRWLMSTMPVKAAGEVTFSLTEGRFSDGRCRHIIAGGAQWRQARLHSPVGSLELAQVNGTFRCTVDGAVALTLRQDSHQLSLSGQGTLSPDGRYLFRGTLQPRQGMPPLLALLVTRPTANNAPGPTPWQLQGKWLPQEQK
notes: PulN of the Klebsiella pneumoniae HS11286 type II secretion system; whole gene as part of the cloned operon pulC to pulO; source: E. coli C43 (DE3) with pspA knockout, co-expressed from the pul operon (pASK3c); DDM-solubilised membranes; purified as part of the complex (StrepTrap, Flag resin)
B5: PulL cytoplasmic domain (aa 1-235) with C-terminal Flag tag (domain or fragment)
chain: MNKINASPQAMLIVRLAAAQAPLHWQLFAPGEPHHEASGRWPTDDASPFPALAEQYPAWVLIPASDCAFHSLNLPAGLRKPPLQVAPFLLEEQLADDVEATHFALLHRQQAQCEIVAVQRQKMRDWLARCESLSLQPLALTPDVLALPWQPPAWSAVQVDEQWLIRHQPWGGMAAENVWLTELLQSEAEEHVIDSYSPPPAAPGVWREQPAQTLLTLAARHPAAQKLSLLQGEFA
notes: cytoplasmic domain of PulL, Klebsiella pneumoniae HS11286, aa 1-235; source: E. coli, co-expressed (pCDF-duet); not shown: Flag, C-terminal, kept

Tests used:
[1] = molecular target: PulD (Klebsiella pneumoniae HS11286) (UniProt P15644); experiment: cryo-EM structure; outer membrane complex of the co-expressed and co-purified Pul_CDELMNS complex on thin carbon film; focused refinement, C15 symmetry, 4.3 Å overall; PulC HR domain (7-8 Å) and PulS (~7 Å) as rigid-body fitted homology models; top views from a purification without glutaraldehyde
[2] = molecular target: T1, PulE with C-terminal StrepII tag; experiment: SDS-PAGE densitometry of the co-purified complex; Pul_CDELMNS co-expressed and co-purified without glutaraldehyde, phenol extracted; fluorescent emission of Coomassie R250 and Sypro Ruby stained gels; six independent purifications; ratios standardised around PulE; settings: both partners purified
[3] = molecular target: T2, PulE N1E domain (aa 1-108) with …; experiment: SDS-PAGE densitometry of the co-purified complex; Pul_(E-N1E/Lcyto) complex, two independent purifications, duplicate gels, Coomassie Blue R250 imaged at 680 nm; settings: both partners purified

| Molecule | stoichiometry N [2] | also measured |
| --- | --- | --- |
| PulD (from UniProt P15644 28-660) (natural protein) | – | stoichiometry N [1]: 15 |
| PulS with C-terminal Flag tag (from UniProt P20440 18-125) (natural protein) | – | stoichiometry N [1]: 1 |
| B1 | 0.99 relative to PulE | – |
| B2 | 0.97 relative to PulE | – |
| B3 | 2.13 relative to PulE | – |
| B4 | 0.95 relative to PulE | – |
| B5 | – | stoichiometry N [3]: 1 |
